Here are results for one molecule from patent US20090074762A1.

For the experiment, the target named is T1, TweakR on cells (TweakR-expressing cells, TweakR transfectant cell line, A375 melanoma cells, tumor tissue) (human) (UniProt Q9NP84).
T1 sequence: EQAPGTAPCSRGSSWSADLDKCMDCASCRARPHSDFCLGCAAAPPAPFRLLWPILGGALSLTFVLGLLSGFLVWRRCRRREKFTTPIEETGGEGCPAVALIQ
Description: cell-based or functional assay.

B1: anti-TweakR antibody ITEM4 (antibody, from another filing, V domains shown)
VH: QVQLQQSGPELVKPGASVKMSCKASGYTFTDFIIAWVKQRTGQGLEWIGEIYPGTGRTYYSEKFRGKATLTADKSSNTAYMQLSSLTSVDSAVYFCARRTIYYDYDGDYWGQGTTLTVSS
VL: DIVMTQAAFSNPVTLGTSASISCRSSKSLLHSNGITYLYWYLQKPGQSPQLLIYQMSNLASGVPDRFSSSGSGTDFTLRISRVEAEDVGVYYCAHNLELPWTFGGGTKLELK
Regarding B1, the agonist activity (IL-8 release assay) amounted to 12%.
